Results on 2 molecules are retold here after US11505583B2, “Proteins for the treatment of epithelial barrier function disorders” (Second Genome, Inc., priority 2018, dated 2022).

Data set [1] relates to C57BL/6 mice given 2.5% DSS in drinking water. Nature of the data set: Therapeutic DSS model of inflammatory bowel disease, treatment after 7 days DSS (Example 5, Example 13B). The format is in vivo, mouse. To be noted: Example 13B; for LBP in serum (ELISA): 50 nmole/kg i.p. b.i.d. for 4 days after 7 days DSS, FIG. 19B; for Colon length / Colon weight to length ratio: 50 nmole/kg, vs DSS+vehicle; for Colon length: FIG. 22B; for Colon weight to length ratio: p<0.01, FIG. 23B; for Body weight changes: 50 nmoles/kg, day 11, p<0.05, FIG. 20B. How it is done: In this example, experiments were performed to study the effects of SG-11 in the DSS mouse model when the SG-11 protein is administered to the mice after DSS treatment for 7 days. This differs from the treatment regimen of Example 4 above in which mice were administered SG-11 protein shortly before treatment with DSS.
Eight-week-old male C57BL/6 mice were housed 5 animals per cage and given food and water ad libitum for seven days. Following a 7-day acclimation period, the mice were provided with drinking water containing 2.5% DSS for 7 days. Fresh 2.5% DSS water was prepared every 2 days during the 7 day DSS administration. For this therapeutic DSS study, SG-11 used to treat the animals was fused at its N-terminus to a FLAG Tag (DYKDDDDK; SEQ ID NO:32).
On day 7 normal drinking water was restored and i.p. treatments of 50 nmole/kg of SG-11 (1.3 mg/kg) or Gly2-GLP2 (0.2 mg/kg) were initiated. Treatments were administered twice a day (b.i.d.), with a morning and evening dose (every 8 and 16 hours) for six days.
Body weight was measured daily during the morning treatment. The colon tissue was then harvested and length was measured in centimeters and the tissue was weighed. Fecal material was flushed from the colon and residual PBS removed by gently running the colon tissue through a pair of forceps. The colon tissue was then weighed and colon weight to length ratio in mg/mm was determined. Following weight measurements proximal and distal colon tissue was banked for RNA and protein analysis and the remaining tissues was fixed in 10% neutral buffered formalin for histopathology. Statistical analysis was performed by a one-way ANOVA compared to DSS+vehicle for serum 4KDa-FITC translocation, serum LBP concentrations, colon length, and colon weight to length ratio, while a two-way ANOVA was performed for analysis of body weight. In all analysis, a Fisher's LSD test for multiple comparisons was used. Graphs represent data pooled from two experiments, and are plotted as mean±SEM.
Histopathology analysis was performed on proximal and distal colon tissues from the therapeutic DSS model described above. Proximal (FIG. 13A) and distal (FIG. 13B) colon scores (range 0-4) are presented and as well as the total score for the colon which represents the sum of proximal and distal colon scores (Range 0-8) (FIG. 13C). LMA=Loss of mucosal architecture, Edema=Edema, INF=Inflammation, TMI=Transmural inflammation, MH=Mucosal hyperplasia, DYS=Dysplasia. Graphs represent data pooled from two independent experiments, and are plotted as mean±SEM. Statistical analysis was performed by a one-way ANOVA compared to DSS+vehicle followed by a Fisher's LSD test for multiple comparisons.
In the second experiment (Example 13B), mice were provided with drinking water containing 2.5% DSS for 7 days. On day 7 normal drinking water was restored and i.p. treatments of 50 nmole/kg of SG-11 (SEQ ID NO:7) (1.3 mg/kg), SG-11V5 (SEQ ID NO:19) (1.3 mg/kg), or Gly2-GLP2 (0.2 mg/kg) were initiated. Treatments were administered twice a day (b.i.d.), with a morning and evening dose (every 8 and 16 hours) for 4 days. For both the prophylactic and therapeutic models fresh 2.5% DSS water was prepared every 2 days during the DSS administration.
At the end of each DSS model study, mice were fasted for 4 hours and then orally gavaged with 600 mg/kg 4KDa dextran labeled with fluorescein isothiocyanate (FITC) [4KDa-FITC]. One hour after the 4KDa-FITC gavage mice were euthanized, blood was collected and FITC signal was measured in serum. […] Data in both graphs are plotted as mean±SEM and each figure represent data from an individual experiment (n=10 per group).
Upon completion of the DSS models above, LBP levels were measured as an inflammation centric readout of barrier function following the protocol detailed in Example 5. Upon completion of both DSS models (Examples 13A and 13B) blood was collected and serum was isolated. […]
In general terms: In an ELISA, binding on a coated surface is turned into a signal by an enzyme label.

In data set [2] the test system is human colonic epithelial cells (HCT8 enterocytes and HT29-MTX goblet cells) co-cultured with U937 monocytes. The experiment in a line: In vitro trans-epithelial electrical resistance (TEER) co-culture assay, barrier disruption by heat killed E. coli. Type of data set: cell-based. Conditions: Example 12; 1 μg/ml (40 nM), 6 hours pre-incubation; HK E. coli alone 78.6%; FIG. 17.
Experimental: Assays were performed as described below in trans-well plates where co-cultures of multiple cell types were performed utilizing a permeable membrane to separate cells. In the apical (top) chamber, human colonic epithelial cells, consisting of a mixture of enterocytes and goblet cells, were cultured until cells obtained tight junction formation and barrier function capacity as assessed by measurement of trans-epithelial electrical resistance (TEER). In the basolateral chamber, monocytes were cultured separately. Epithelial cells were primed with inflammatory cytokines. The assays measured the effect of a therapeutic protein, i.e., SG-11, on epithelial barrier function, muc2 gene expression, and production of cytokines.
Cell culture. The HCT8 human enterocyte cell line (ATCC Cat. No. CCL-244) was maintained in RPMI-1640 medium supplemented with 10% fetal bovine serum, 100 IU/ml penicillin, 100 μg/ml streptomycin, 10 μg/ml gentamicin and 0.25 μg/ml amphotericin (cRPMI). […]
Epithelial cell culture. […] Epithelial cells were trypsinized from culture flasks and viable cells determined by trypan blue counting. […]
Co-culture assay. […] Trans-epithelial electrical resistance (TEER) readings were measured after the IFN-γ treatment and were used as the pre-treatment TEER values. […]

The nature of data set [3]: Post-translational modifications after storage, LC-MS/MS, SG-11 vs SG-11V5 (Example 10). To be noted: for Oxidation of M1 (MLEGEESVVYVGK): 1 mg/ml in Buffer 1 (50 mM NaPO4, pH 8, 150 mM NaCl, 10% glycerol). The format is physicochemical. How it is done: In accordance with PTMs observed when SG-11 (SEQ ID NO:9) was subjected to stress conditions (Example 11), SG-11V5 (SEQ ID NO:19) was analyzed by LC-MS/MS for post translational modifications using the methods described in Example 11, and compared with PTMs for SG-11 (SEQ ID NO:7)
For this analysis, PTMs of wildtype SG-11 (SEQ ID NO:7) and SG-11V5 (SEQ ID NO:19) were compared. In the first analysis (results provided in Table 10 below), the proteins were stored at a concentration of 1 mg/ml in Buffer 1 (50 mM NaPO4^−, pH 8, 150 mM NaCl, 10% glycerol) and stored for 2 weeks at either 4° C. or 40° C. The proteins were then treated with DTT and IAA, followed by trypsin digestion. The digested samples were then analyzed by Waters ACQUITY UPLC couples to Xevo G2-XS QTOF mass spectrometer using a Protein BEH C18 column.
In a second analysis, the SG-11 (SEQ ID NO:7) and SG-11V5 (SEQ ID NO:19) proteins were each stored at 40° C. in a variety of buffers. The storage buffer used in this experiment was 100 mM NaPO4^−, pH7, with 10% sorbitol (+Sor) or without 10% sorbitol (−Sor) and with 10% glycerol (+Gly) or without 10% glycerol (−Gly) as indicated in Table 11. […] There were also differences in levels of N137 deamidation for the two proteins with the presence of at least glycerol and also the presence of both sorbitol and glycerol resulting in large decreases in N137 deamidation.

The mark [4] stands for this setting: 4° C., 2 weeks, 1 mg/ml in Buffer 1 (pH 8).
Setting [5] is: 40° C., 2 weeks, 1 mg/ml in Buffer 1 (pH 8).
Where [6] appears, read: 40° C., 100 mM NaPO4, pH7, +Sor (10% sorbitol) −Gly.
[7] abbreviates: 40° C., 100 mM NaPO4, pH7, +Sor +Gly.
Setting [8] is: 40° C., 100 mM NaPO4, pH7, −Sor +Gly (10% glycerol).
[9] abbreviates: 40° C., 100 mM NaPO4, pH7, −Sor −Gly.

B1: SG-11 (SEQ ID NO:7): Recombinant SG-11 with N-terminal methionine, 233 amino acids, no N-terminal tag (protein)
chain: MLEGEESVVYVGKKGVIASLDVETLDQSYYDETELKSYVDAEVEDYTAEHGKNAVKVESLKVEDGVAKLKMKYKTPEDYTAFNGIELYQGKVVASLAAGYVYDGEFARVEEGKVVGAATKQDIYSEDDLKVAIIRANTDVKVDGEICYVSCQNVKLTGKDSVSIRDGYYLETGSVTASVDVTGQESVGTEQLSGTEQMEMTGEPVNADDTEQTEAAAGDGSFETDVYTFIVYK
On to B1, for which, in data set [1], the “LBP in serum (ELISA)” value was “no reduction in LBP”, the Colon length result was “significant increase in the colon length”, the “Colon weight to length ratio” value is “significantly improved colon weight to length ratios” and the Body weight changes result is listed as “statistically improved body weight changes”. In data set [2], the “TEER after HK E. coli (normalized, relative to untreated samples)” value amounted to 89.5%. Also, in data set [3] (4° C., 2 weeks), the “Oxidation of M1 (MLEGEESVVYVGK)” value is 8.9%. Moreover, in data set [3] (setting [4]), the “Deamidation of N83” value is reported as 19.4% and the “Deamidation of N137 (ANTDVK)” value stood at 1.0%. Further, in data set [3] (40° C., 2 weeks), the “Oxidation of M1 (MLEGEESVVYVGK)” value was found to be 12.5%. Further, in data set [3] (setting [5]), the “Deamidation of N83” value was determined as 98.1% and the “Deamidation of N137 (ANTDVK)” value worked out at 0.9%. In addition, in data set [3] (setting [6]), the “Deamidation of N83” value turned out to be 93.9%, the “Deamidation of N137” value is 2.6% and the “Oxidation of M1” value came to 12.1%. Further, in data set [3] (setting [7]), the “Deamidation of N83” value came out at 87.4%, the “Deamidation of N137” value stood at 2.5% and the “Oxidation of M1” value came to 27.8%. For the same molecule, in data set [3] (setting [8]), the “Deamidation of N83” value is recorded as 96.2%, the “Deamidation of N137” value is recorded as 3.0% and the “Oxidation of M1” value is listed as 38.6%. For the same molecule, in data set [3] (setting [9]), the “Deamidation of N83” value turned out to be 98.1%, the “Deamidation of N137” value came out at 0.9% and the “Oxidation of M1” value amounted to 20%.

B2: SG-11V5: SG-11 variant SEQ ID NO:19 comprising N53S, N83S, C147V, C151S with respect to SEQ ID NO:7 (protein)
chain: MLEGEESVVYVGKKGVIASLDVETLDQSYYDETELKSYVDAEVEDYTAEHGKSAVKVESLKVEDGVAKLKMKYKTPEDYTAFSGIELYQGKVVASLAAGYVYDGEFARVEEGKVVGAATKQDIYSEDDLKVAIIRANTDVKVDGEIVYVSSQNVKLTGKDSVSIRDGYYLETGSVTASVDVTGQESVGTEQLSGTEQMEMTGEPVNADDTEQTEAAAGDGSFETDVYTFIVYK
On to B2, for which the “LBP in serum (ELISA)” value in data set [1] was “no reduction in LBP”. Further, the Colon length result in data set [1] is reported as “significant increase in the colon length”. Besides, the “Colon weight to length ratio” value in data set [1] is listed as “significantly improved colon weight to length ratios”. Besides, the Body weight changes result in data set [1] is “statistically improved body weight changes”. The “TEER after HK E. coli (normalized, relative to untreated samples)” value in data set [2] was 89.1%. For the same molecule, the “Oxidation of M1 (MLEGEESVVYVGK)” value is 2.5% in data set [3] (4° C., 2 weeks) and 4.7% in data set [3] (40° C., 2 weeks). Also, the “Deamidation of N137 (ANTDVK)” value in data set [3] (setting [4]) turned out to be 0.1%; in data set [3] (setting [5]), 0.3%. Further, the “Deamidation of N137” value in data set [3] (setting [6]) is recorded as 3.3%; in data set [3] (setting [7]), 0.1%; in data set [3] (setting [8]), 0.4%; in data set [3] (setting [9]) it was 1.5%. Besides, the “Oxidation of M1” value was 3.3% in data set [3] (setting [6]), 5.9% in data set [3] (setting [7]), 5.6% in data set [3] (setting [8]) and 2.7% in data set [3] (setting [9]).
